Molecular target: T1, cytoskeletal associated protein 4 (CKAP4), endogenous in HeLa or normal bladder epithelial cells (Homo sapiens, UniProt Q07065 1-602, reversibly palmitoylated on cysteine 100)
T1 sequence: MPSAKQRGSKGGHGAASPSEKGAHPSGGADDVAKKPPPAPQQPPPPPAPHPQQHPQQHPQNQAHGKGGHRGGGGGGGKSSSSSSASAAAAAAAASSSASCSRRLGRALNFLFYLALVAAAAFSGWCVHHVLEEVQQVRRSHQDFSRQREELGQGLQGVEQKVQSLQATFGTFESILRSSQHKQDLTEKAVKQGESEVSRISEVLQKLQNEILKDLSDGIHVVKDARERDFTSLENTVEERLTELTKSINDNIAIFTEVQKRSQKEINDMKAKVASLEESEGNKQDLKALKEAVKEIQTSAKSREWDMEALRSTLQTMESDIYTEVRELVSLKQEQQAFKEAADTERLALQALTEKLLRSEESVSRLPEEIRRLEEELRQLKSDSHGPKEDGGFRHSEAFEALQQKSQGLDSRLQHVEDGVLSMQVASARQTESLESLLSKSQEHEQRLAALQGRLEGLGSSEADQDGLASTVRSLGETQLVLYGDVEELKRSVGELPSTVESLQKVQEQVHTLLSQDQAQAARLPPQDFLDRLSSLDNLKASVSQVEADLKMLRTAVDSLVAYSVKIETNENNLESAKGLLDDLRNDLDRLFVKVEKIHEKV
Experiment: cell-based or functional assay

B1: antiproliferative factor (APF), synthetic (peptide)
peptide: TVPAAVVVA
modifications: sialic acid α-2,3 linked to galactose P1-3-N-acetylgalactosamine, which is α-O-linked to the N-terminal threonine residue of the nonapeptide (printed as '3 carbohydrate moieties-T-V-P-A-A-V-V-V-A')
abundance of CKAP4 in the nucleus (nuclear fractionation and Western blot, HeLa cells): 5 fold

Source: patent US20110244493A1 (COMMONWEALTH MEDICAL COLLEGE, published 2011)
